In patent US20240301033A1 (published 2024):

Assays:
[1] = molecular target: T1, human CD8 alpha (CD8A) on primary human CD8+ T cells (human, UniProt P01732 22-235); experiment: flow cytometry, human CD8+ T cells, 2 uM
T1 construct: whole, on cells
Method: (§1) Binding of the 190 ELISA hits to human and cynomologous monkey primary CD8 T cells was assessed by flow cytometry. The FN3 domain molecules were diluted to 2 μM and 0.2 μM in PBS and incubated with human or cynomologous monkey CD8+ T cells in 96-well format. After 1 hour at 4° C., the cells were washed once with PBS and then resuspended with an anti-FN3 domain antibody (PAB25) solution. Following this incubation, the cells were washed twice with PBS and a PE conjugated secondary antibody and a viability dye were added. Finally, cells were washed and resuspended in PBS for flow cytometric analysis using a BD Canto Instrument. Cells were gating on live cells and median fluorescence intensity of the bound Centyrins (PE channel) was calculated using Cytobank software.

[2] = molecular target: T1, human CD8 alpha (CD8A) on primary human …; experiment: flow cytometry, human CD8+ T cells, 0.2 uM
Method: as §1

[3] = molecular target: T2, cynomolgus monkey CD8A on primary cynomolgus CD8+ T cells (cynomolgus monkey, UniProt P01732 23-235 (human entry)); experiment: flow cytometry, cyno CD8+ T cells, 0.2 uM
T2 construct: also called Cyno CD8alpha
T2 sequence (P01732 other isoform, or with tags, fused parts or gaps limits assumed): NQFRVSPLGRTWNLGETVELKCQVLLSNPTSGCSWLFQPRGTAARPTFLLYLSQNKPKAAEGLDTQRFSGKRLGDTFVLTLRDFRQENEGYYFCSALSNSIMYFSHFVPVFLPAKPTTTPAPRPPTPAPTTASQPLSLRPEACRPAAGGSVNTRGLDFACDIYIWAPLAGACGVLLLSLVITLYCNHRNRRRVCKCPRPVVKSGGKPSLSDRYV
Method: as §1

[4] = molecular target: T2, cynomolgus monkey CD8A on primary …; experiment: flow cytometry, cyno CD8+ T cells, 2 uM
Method: as §1

T1 sequence (P01732 22-235): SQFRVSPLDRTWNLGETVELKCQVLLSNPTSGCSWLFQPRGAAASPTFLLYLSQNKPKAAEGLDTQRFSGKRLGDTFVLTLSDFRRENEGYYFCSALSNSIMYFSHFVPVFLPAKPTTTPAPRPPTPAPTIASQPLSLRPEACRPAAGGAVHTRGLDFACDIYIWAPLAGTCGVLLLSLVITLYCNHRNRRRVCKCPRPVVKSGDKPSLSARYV

B1: Tencon25-His (designed binder, not shown: small tags and cut ends)
chain: LPAPKNLVVSEVTEDSARLSWTAPDAAFDSFLIQYQESEKVGEAIVLTVPGSERSYDLTGLKPGTEYTVSIYGVKGGHRSNPLSAIFTT
notes: kd not given
Human T-cell Binding 2 uM (MFI) [1]: 341 MFI
Human T-cell Binding 0.2 uM (MFI) [2]: 219 MFI
Cyno T-cell Binding 0.2 uM (MFI) [3]: 336 MFI
Cyno T-cell Binding 2 uM (MFI) [4]: 337 MFI
